# Results as given in US20140349871A1 (University of Washington, published 2014).
# Molecular target: T1, prohibitin-2 (PHB2) (human, UniProt Q99623 2-299)
# T1 construct: whole, on cells; also called BAP37
# Test: in vivo PIR (BDP-NHP) cross-linking of intact HeLa cells, ReACT LC-MS3
# T1 sequence (Q99623 2-299): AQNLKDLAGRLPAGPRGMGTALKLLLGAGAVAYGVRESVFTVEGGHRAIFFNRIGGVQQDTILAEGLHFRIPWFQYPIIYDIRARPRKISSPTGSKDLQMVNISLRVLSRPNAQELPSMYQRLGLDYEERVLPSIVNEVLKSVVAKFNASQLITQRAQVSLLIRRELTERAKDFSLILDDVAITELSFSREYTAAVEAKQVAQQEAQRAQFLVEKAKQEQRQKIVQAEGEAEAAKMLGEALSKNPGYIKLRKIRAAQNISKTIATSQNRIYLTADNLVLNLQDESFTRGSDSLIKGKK
binder,measurement,value
"prohibitin (PHB) (other, human, UniProt P35232 2-272, looked up, whole, on cells; also called prohibitin 1; BAP32) AAKVFESIGKFGLALAVAGGVVNSALYNVDAGHRAVIFDRFRGVQDIVVGEGTHFLIPWVQKPIIFDCRSRPRNVPVITGSKDLQNVNITLRILFRPVASQLPRIFTSIGEDYDERVLPSITTEILKSVVARFDAGELITQRELVSRQVSDDLTERAATFGLILDDVSLTHLTFGKEFTEAVEAKQVAQQEAERARFVVEKAEQQKKAAIISAEGDSKAAELIANSLATAGDGLIELRKLEAAEDIAYQLSRSRNITYLPAGQSVLLQLPQ",binding result,binds
